{"source": "patent US6719969B1", "about": "“Treatment of liver disease and injury with CXC chemokines” (The Regents of The University of Michigan, priority 1999, dated 2004)", "molecules": {"B1": {"name": "MIP-2: ELR-containing CXC chemokine, macrophage inflammatory protein-2; recombinant murine protein (protein, UniProt P10889 28-100, looked up)", "C-X-C motif chemokine 2": "AVVASELRCQCLKTLPRVDFKNIQSLSVTPPGPHCAQTEVIATLKGGQKVCLDPEAPLVQKIIQKILNKGKAN"}, "B2": {"name": "SCF: recombinant murine stem cell factor (protein)", "chain": "KEICGNPVTDNVKDITKLVANLPNDYMITLNYVAGMDVLPSHCWLRDMVIQLSLSLTTLLDKFSNISEGLSNYSIIDKLGKIVDDLVLCMEENAPKNIKESPKRPETRSFTPEEFFSIFNRSIDAFKDFMVASDTSDCVLSSTLGPEKDSRVSVTKPFMLPPVA"}}, "key": {"primary rat hepatocytes [1]": {"test_system": "primary rat hepatocytes", "description": "(§2) Adult male pathogen-free Sprague Dawley rats (Charles River, Portage, Mich.) weighing 300-350 gms. were used for isolation of hepatocytes by collagenase perfusion (Berry and Friend, 1969; Alpini et al., 1994; each incorporated herein by reference). Perfusion was performed via the portal vein after anesthesia was induced with intramuscular ketamine (100 mg/kg) and maintained with inhalation of methoxyflurane. […] The portal vein was then exposed and cannulated with a 16 gauge angiocatheter.\n(§3) The liver was perfused with Hank's solution (calcium and magnesium free with 10 mM Hepes and 10^5 U/L of penicillin/streptomycin, pH 7.4 [Biowhittaker, Walkersville, Md.]) at 37° C. at a rate of 10 ml/min to flush the liver of intravascular blood. The liver was next perfused with a collagenase solution (0.5 mg/ml collagenase B [Boehringer Mannheim, Indianapolis, Ind.] in Dulbecco's Modified Eagle's Media/F12 [DMEM/F12 {Biowhittaker, Walkersville, Md.}] with 10^5 U/L penicillin/streptomycin) at 37° C. at a rate of 10 ml/min until there was evidence of tissue fracture beneath the liver capsule.\n(§4) The liver was then gently removed from the animal, placed into a sterile petri dish containing additional collagenase solution, the liver capsule removed, and the tissue gently agitated to disperse the cells. […] Hepatocyte viability was generally 85-95% as determined by trypan blue exclusion. […]"}, "[2]": {"test_system": "normal murine liver cells (ATCC CRL-1638; NmuLi)", "assay": "Cultured liver cell proliferation after acetaminophen, [3H]thymidine incorporation", "type": "cell-based, mouse", "settings": "for Proliferation of liver cells exposed to PBS: NAC 1 mM, cytokines 1 ng/ml, no acetaminophen", "protocol": "The effects of chemokines, NAC and HGF on hepatocyte proliferation after a 24 h acetaminophen challenge were examined using normal murine liver cells obtained from American Type Culture Collection (ATCC CRL-1638; NmuLi). Hepatocytes were plated at a density of 1.0×10^5 cells/well in 6-well tissue culture plates, and were deprived of fetal bovine serum supplementation for 36 h prior to an study. Fasted hepatocytes were subsequently exposed to 2.5 mg/ml of acetaminophen and were left untreated or treated with one of NAC, MIP-2, ENA-78, IL-8, IP-10 or HGF. NAC at 1 mM or individual cytokines at 1 ng/ml were added either immediately or 10 h after the addition of acetaminophen.\nIn additional in vitro studies, normal serum or anti-CXCR2 antibody was also included in cultures of treated or untreated hepatocytes exposed to PBS or acetaminophen. Ten μCi of [^3H]thymidine was added to each well for the final 4 h of culture, and 24 h after the addition of acetaminophen suspensions of hepatocytes were prepared via cell lysis with 0.5% (v/v) Triton-X100. [^3H]thymidine incorporation was assessed by liquid scintillation counting on a Beckman counter (Beckman Instruments, Fullerton, Calif.)."}, "[3]": {"test_system": "CD1 mice challenged with 400 mg/kg acetaminophen", "assay": "Acetaminophen-induced hepatic injury, mice fasted 12 h, treatment immediately or 10 h after challenge", "type": "in vivo, mouse", "settings": "for Liver injury (histology): treatment 10 h after acetaminophen, liver at 48 h", "protocol": "Female CD1 mice (6-8 wk of age) were purchased from Charles River Laboratories (Portage, Mich.) and maintained under specific pathogen-free conditions with free access to water and food prior to each study. Fresh suspensions of acetaminophen (Sigma Chemical Company, St. Louis, Mo.) were made daily by dissolving the compound in phosphate buffered saline (PBS) warmed to 40° C. In all studies, mice were allowed free access to water alone prior to an i.p. injection of 400 mg/kg acetaminophen (Manatou et al., 1996; incorporated herein by reference).\nProtocol 2: In the second set of studies, mice were fasted for 12 h and received one of NAC, murine MIP-2, the human proteins ENA-78, IL-8, HGF or IP-10 either immediately or 10 h after acetaminophen challenge. […] Mice were injected i.v. with 100 μg of NAC or 2 μg of recombinant protein (ENA-78, IL-8, HGF or IP-10) dissolved in 0.5 ml of normal saline. All mice were subsequently sacrificed 48 h after acetaminophen challenge and serum and liver samples were removed.\nAcute hepatocellular injury results in elevated levels of aspartate aminotransferase (AST). Serum levels of AST were determined 48 h after mice were challenged with acetaminophen by Clinical Pathology at the University of Michigan Medical School (Ann Arbor, Mich.) using standardized techniques.\nFor histological assessment of hepatic injury, liver tissues were fixed in 4% paraformaldehyde for 24 h prior to routine histological processing. A pathologist assessed hematoxylin and eosin stained slides from acetaminophen-challenged mice in a blinded manner. Separate scoring systems were devised to indicate the area of liver necrosis and hemorrhage, and the extent of hepatic inflammation. Detailed histological grading of hepatic injury including area of liver necrosis and hemorrhage was determined at 48 h after acetaminophen challenge. Hepatic inflammation was graded as absent, slight, moderate, or prominent.\nThe histological appearances of the livers from normal mice and mice that were challenged with acetaminophen and received saline or 2 μg of murine MIP-2, human ENA-78, human IL-8, human IP-10, human HGF or 100 μg of NAC were also analyzed. Mice were fasted for 12 h prior to i.p. injection with 400 mg/kg of acetaminophen, and then allowed free access to food. In these studies, saline, chemokines or NAC were given by i.v. injection 10 h after acetaminophen challenge, and liver was removed from each mouse for histological examination at the 48 h time point after acetaminophen."}, "CD1 and BALB/c mice": {"test_system": "CD1 and BALB/c mice", "assay": "Acetaminophen lethality, pilot studies in CD1 and BALB/c mice", "type": "in vivo, mouse", "settings": "400 mg/kg i.p., 12 h fast", "protocol": "Protocol 2: In the second series of studies, CD1, CXCR2ko and CXCR2wt mice were allowed free access to water for 12 h prior to an i.p. injection of 400 mg/kg acetaminophen. All acetaminophen challenged mice were fasted in this manner because previous studies have shown that fasting promotes hepatic susceptibility to acetaminophen toxicity by decreasing the inactivation of chemically reactive metabolites […], allowing these metabolites to bind hepatocyte proteins and cause cell damage (Whitcomb and Block, 1994; Pessayre et al., 1979; each incorporated herein by reference). […] Two hours prior to acetaminophen challenge, CD1 mice (n=1 0/group) were injected with 0.5 ml of normal rabbit serum or anti-mouse MIP-2 antiserum, and mouse survival was monitored for the subsequent 4 days. CXCR2ko and CXCR2wt mice (n=5/group) were injected i.p. with the same dose of acetaminophen, and mouse survival was monitored for 4 days."}, "CBA/J mice": {"test_system": "CBA/J mice", "assay": "Acetaminophen dose response in CBA/J mice", "type": "in vivo, mouse", "settings": "8 h fast", "protocol": "(§1) Six wk old female CBA/J mice (Jackson Laboratory, Bar Harbor, Me.) were fasted, but with free access to water, for 8 h prior to intraperitoneal (I.P.) injection of acetaminophen (Sigma) at 200 or 300 mg/kg, dissolved in normal saline. After injection, the animals were allowed free access to food. Mice were euthanized and liver was taken from the mice at various time points after acetaminophen injection into the mice.\nTo determine the level of acetaminophen that was necessary to induce liver damage, a dose response was performed. In these studies, normal CBA/J mice were fasted for 8 h and subsequently given an intraperitoneal injection of acetaminophen dissolved in PBS or PBS alone for control. Mouse survival was followed for 4 days when the study was terminated. 20 mice/group were used in 2 separate studies."}, "[4]": {"test_system": "CD1 mice challenged with 400 mg/kg acetaminophen", "assay": "Acetaminophen challenge in mice fasted 24 h, MIP-2 or NAC treatment", "type": "in vivo, mouse", "description": "Protocol 3: In the next set of studies, mice were fasted for 24 h and received MIP-2 (2 μg) or NAC (100 μg) via an i.v. injection either immediately or 10 h after acetaminophen challenge, and liver and serum samples were removed from surviving mice 48 h after acetaminophen challenge. Liver and serum samples from the experimental groups and from mice challenged with an i.p. injection of PBS and treated i.v. with normal saline were processed as described below.\nThe histological appearances of the livers from mice that were challenged with acetaminophen and received 100 μg of NAC or 2 μg of murine MIP-2 by i.v. injection, either immediately after or 10 h later, were also analyzed."}, "[5]": {"test_system": "CD-1 mice challenged with 400 mg/kg acetaminophen", "assay": "Delayed MIP-2 therapy in acetaminophen-challenged mice: histology, BrdU, nuclear Western blot", "type": "in vivo, mouse"}, "primary rat hepatocytes [6]": {"test_system": "primary rat hepatocytes", "assay": "Primary rat hepatocyte proliferation in vitro, 3H-thymidine incorporation", "settings": "0.001-100 ng/ml, 24 h of incubation, vs media alone", "description": "as §2, §3, §4"}, "murine CXCR2": {"target": "T1, murine CXCR2 (Mus musculus, UniProt P35343)", "T1 sequence (P35343 1-359)": "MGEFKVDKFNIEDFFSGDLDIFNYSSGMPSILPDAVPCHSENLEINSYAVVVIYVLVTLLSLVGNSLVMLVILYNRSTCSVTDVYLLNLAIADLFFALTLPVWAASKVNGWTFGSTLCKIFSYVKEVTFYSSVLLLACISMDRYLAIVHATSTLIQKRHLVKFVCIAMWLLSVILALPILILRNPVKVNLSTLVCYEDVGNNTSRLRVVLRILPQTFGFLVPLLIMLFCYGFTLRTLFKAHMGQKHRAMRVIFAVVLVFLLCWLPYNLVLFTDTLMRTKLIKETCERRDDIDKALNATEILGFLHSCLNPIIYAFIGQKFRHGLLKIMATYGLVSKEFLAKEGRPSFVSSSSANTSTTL", "settings": "Lee et al., 1995; cited from earlier work"}, "[7]": {"test_system": "CBA/J mice treated with acetaminophen", "assay": "Exogenous SCF at lethal acetaminophen dose", "type": "in vivo, mouse", "protocol": "as §1\nHepatic damage was measured using an AXIO-HOME microscope by 2 independent investigators. Sections of liver tissue (2 from each animal) were stained with hematoxylin and eosin and the area of hepatic damage was outlined and expressed as a % of total liver area examined.\nIn order to finally determine whether SCF has a role in protecting the animals from acetaminophen toxicity, 1 μg of recombinant murine SCF or saline was injected i.v. at the time of or within 30 min. of acetaminophen challenge. The survival of animals was recorded for 4 days and the study was terminated. % Survival data was collected from 2 separate studies with a total of 20 mice in each treatment group."}}, "note": "Like-named read-outs stand apart in the source and are kept apart here.", "data": [{"molecule": "HGF: human hepatocyte growth factor, used as positive control [reference compound]", "values": [{"measurement": "Hepatocyte proliferation (incorporation of 3H-thymidine)", "setting": "primary rat hepatocytes [1]", "result": "more significant"}, {"measurement": "Proliferation of liver cells exposed to PBS", "setting": "[2]", "result": "did not change the proliferation"}, {"measurement": "Liver injury (histology)", "setting": "[3]", "result": "Neither HGF nor 100 μg of NAC were effective"}, {"measurement": "Significant reduction of serum AST levels", "setting": "[3]; treatment immediately after acetaminophen, AST at 48 h", "result": "not"}]}, {"molecule": "CC(=O)Nc1ccc(O)cc1", "note": "[acetaminophen]", "values": [{"measurement": "Lethality", "setting": "CD1 and BALB/c mice", "result": "approximately 10%"}, {"measurement": "Lethality", "setting": "CBA/J mice; 200 mg/kg i.p.", "result": "no lethality"}, {"measurement": "Lethality", "setting": "CBA/J mice; 300 mg/kg i.p., by 48 h", "result": "~100", "unit": "%"}]}, {"molecule": "B1", "values": [{"measurement": "Liver histology", "setting": "[4]; 24 h fast, treatment delayed 10 h", "result": "showed improvements"}, {"measurement": "Serum AST, MIP-2 vs NAC", "setting": "[4]; 24 h fast, treatment delayed 10 h, 48 h", "result": "significantly lower levels of serum AST"}, {"measurement": "Percent survival, treatment 10 h post Acetaminophen", "setting": "[4]; CD1 mice fasted 24 h, 400 mg/kg acetaminophen, 400 mg/kg", "result": 60, "unit": "%"}, {"measurement": "Liver histology 2 days after injection", "setting": "[5]; 1 ug i.v. 10 h after acetaminophen", "result": "little evidence of liver injury"}, {"measurement": "Nuclear expression of C/EBP-α", "setting": "[5]; 8 h after treatment", "result": "exhibited nuclear expression of the 48- and 42-kDa isoforms of C/EBP-α"}, {"measurement": "Nuclear cyclin D1 protein", "setting": "[5]; 24 h after treatment, Western blot", "result": "markedly greater nuclear levels of cyclin D1 protein"}, {"measurement": "BrdU-labeled hepatocytes, enhancement above control group", "setting": "[5]; 48 h after treatment", "result": 10, "unit": "fold"}, {"measurement": "AST and ALT levels", "setting": "[5]; IL-6 knockout", "result": "dramatic decrease of AST and ALT levels"}, {"measurement": "Nuclear expression of 38- and 35-kDa LAP of C/EBP-β", "setting": "[5]; Western blot of liver nuclear extracts", "result": "evident at 4 h after MIP-2 treatment"}, {"measurement": "Nuclear expression of STAT-3", "setting": "[5]; vs PBS", "result": "strongly expressed at all times examined"}, {"measurement": "IL-6 in serum or liver", "setting": "[5]; vs controls", "result": "never significantly elevated"}, {"measurement": "Proliferation of liver cells exposed to acetaminophen for 24 h", "setting": "[2]; 2.5 mg/ml acetaminophen, treatment added immediately", "result": "prevented the drop in liver cell proliferation"}, {"measurement": "Proliferation of liver cells exposed to PBS", "setting": "[2]", "result": "did not change the proliferation"}, {"measurement": "Liver injury (histology)", "setting": "[3]", "result": "marked attenuation of liver injury"}, {"measurement": "Significant reduction of serum AST levels", "setting": "[3]; treatment delayed 10 h after acetaminophen, AST at 48 h", "result": "significantly reduced serum AST levels"}, {"measurement": "Reduction of serum AST levels", "setting": "[3]; treatment immediately after acetaminophen, AST at 48 h, NAC 100 ug, proteins 2 ug i.v.", "result": "approximately 50%"}, {"measurement": "Hepatocyte proliferation (incorporation of 3H-thymidine)", "setting": "primary rat hepatocytes [6]", "result": "significant increase in hepatocyte proliferation"}, {"measurement": "Affinity for murine CXCR2 relative to KC", "setting": "murine CXCR2", "result": "ten-fold greater affinity"}]}, {"molecule": "B2", "values": [{"measurement": "Survival", "setting": "[7]; 1 ug i.v. at or within 30 min of lethal acetaminophen dose, 4 days", "result": 90, "unit": "%"}, {"measurement": "Liver histology", "setting": "[7]; 300 mg/kg acetaminophen, 1 ug SCF", "result": "no necrotic areas"}, {"measurement": "Hepatocyte proliferation in vitro", "setting": "hepatocytes", "result": "can directly induce hepatocyte proliferation in vitro"}]}]}
